# Assay results reported in PMC8062120, “Molecular basis of F-actin regulation and sarcomere assembly via myotilin” (PLoS Biology, 2021).
# T1: Full-length myotilin with N-terminal thioredoxin tag (Trx-MYOT) (human, UniProt Q9UBF9 1-498)
# T1 construct: myotilin, human, full length; source: E. coli B834 (DE3), purified (HisTrap FF, SEC); not shown: Trx, N-terminal, kept
# T1 sequence (looked up): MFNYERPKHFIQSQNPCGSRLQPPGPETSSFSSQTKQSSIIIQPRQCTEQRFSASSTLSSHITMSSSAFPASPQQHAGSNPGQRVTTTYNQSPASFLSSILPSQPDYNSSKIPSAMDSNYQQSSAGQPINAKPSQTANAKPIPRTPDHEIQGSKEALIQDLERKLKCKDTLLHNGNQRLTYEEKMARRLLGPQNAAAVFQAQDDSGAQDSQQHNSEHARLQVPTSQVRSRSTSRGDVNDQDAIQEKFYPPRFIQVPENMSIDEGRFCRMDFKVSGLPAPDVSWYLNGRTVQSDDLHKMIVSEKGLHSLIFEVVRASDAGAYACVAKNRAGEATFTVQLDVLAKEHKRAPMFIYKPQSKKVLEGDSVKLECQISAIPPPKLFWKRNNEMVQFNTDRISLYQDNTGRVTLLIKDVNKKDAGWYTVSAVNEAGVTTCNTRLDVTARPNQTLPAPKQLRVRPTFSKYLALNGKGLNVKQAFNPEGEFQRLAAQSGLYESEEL
# Tests used:
# [1] = target: T1, Full-length myotilin with N-terminal …; experiment: ITC; 25°C; 400 μM ACTN2-EF14 injected into the cell with 20 μM Trx-MYOT or Trx-MYOT-NEECK; 20 mM Hepes, 400 mM NaCl, 250 mM arginine, 5% glycerol, pH 7.5; conditions: both partners purified
# [2] = target: F-actin (rabbit skeletal muscle actin, polymerized) (rabbit, UniProt P68135 1-377); experiment: co-sedimentation; F-actin co-sedimentation, conditions B2 (PIPES pH 6.8, 100 mM NaCl); fixed 6 μM myotilin fragment in 20 μl mixed with pre-polymerized F-actin (0 to 60 μM) in 20 μl; one site-specific binding fit; apparent Kd; conditions: both partners purified
# [3] = target: the molecule itself; experiment: SAXS; batch SAXS at high or comparable concentrations; Ig1Ig2^250–444 up to 14.12 mg/ml, Ig1Ig2^250–498 up to 42.8 mg/ml, Ig1Ig2^220–452 up to 52 or 36.6 mg/ml, R405K up to 45.5 mg/ml; 20 mM HEPES, 150 mM NaCl, 5% glycerol, 1 mM DTT, pH 7.4 (one 220–452 set in 20 mM MES, 200 mM NaCl, pH 6.0); mass from I0, Rg, Dmax, P(r); monomer to dimer
Binder,Kd [2],also measured
"α-actinin-2 EF14 (ACTN2-EF14), CAMD encoding all 4 EF-hands (domain or fragment, His6-tag removed with HRV-3C protease; limits not printed (S3 Table), so taken by convention from just before EF-hand 1 (753) to the C-terminus) DAKGITQEQMNEFRASFNHFDRRKNGLMDHEDFRACLISMGYDLGEAEFARIMTLVDPNGQGTVTFQSFIDFMTRETADTDTAEQVIASFRILASDKPYILAEELRRELPPDQAQYCIKRMPAYSGPGSVPGALDYAAFSSALYGESDL",,Kd [1]: 4.2 ± 1.2 µM
"Myotilin Ig1Ig2^250–498 (domain or fragment, source: E. coli B834 (DE3), purified (HisTrap, HRV-3C cleavage, Resource S cation exchange, SEC); not shown: His tag (from the HisTrap column)) PRFIQVPENMSIDEGRFCRMDFKVSGLPAPDVSWYLNGRTVQSDDLHKMIVSEKGLHSLIFEVVRASDAGAYACVAKNRAGEATFTVQLDVLAKEHKRAPMFIYKPQSKKVLEGDSVKLECQISAIPPPKLFWKRNNEMVQFNTDRISLYQDNTGRVTLLIKDVNKKDAGWYTVSAVNEAGVTTCNTRLDVTARPNQTLPAPKQLRVRPTFSKYLALNGKGLNVKQAFNPEGEFQRLAAQSGLYESEEL",1.2 ± 0.2 µM,
"Myotilin Ig1Ig2^185–498 (domain or fragment, source: E. coli C41 (DE3), purified (HisTrap FF, HRV-3C cleavage, StrepTrap HP, SEC)) MARRLLGPQNAAAVFQAQDDSGAQDSQQHNSEHARLQVPTSQVRSRSTSRGDVNDQDAIQEKFYPPRFIQVPENMSIDEGRFCRMDFKVSGLPAPDVSWYLNGRTVQSDDLHKMIVSEKGLHSLIFEVVRASDAGAYACVAKNRAGEATFTVQLDVLAKEHKRAPMFIYKPQSKKVLEGDSVKLECQISAIPPPKLFWKRNNEMVQFNTDRISLYQDNTGRVTLLIKDVNKKDAGWYTVSAVNEAGVTTCNTRLDVTARPNQTLPAPKQLRVRPTFSKYLALNGKGLNVKQAFNPEGEFQRLAAQSGLYESEEL",2 ± 0.4 µM,
"Myotilin Ig1Ig2^185–454 (domain or fragment, limits determined by intact protein mass spectrometry of the final product; source: E. coli, purified (GSTrap FF, TEV cleavage, IMAC and GSTrap flow-through, SEC)) MARRLLGPQNAAAVFQAQDDSGAQDSQQHNSEHARLQVPTSQVRSRSTSRGDVNDQDAIQEKFYPPRFIQVPENMSIDEGRFCRMDFKVSGLPAPDVSWYLNGRTVQSDDLHKMIVSEKGLHSLIFEVVRASDAGAYACVAKNRAGEATFTVQLDVLAKEHKRAPMFIYKPQSKKVLEGDSVKLECQISAIPPPKLFWKRNNEMVQFNTDRISLYQDNTGRVTLLIKDVNKKDAGWYTVSAVNEAGVTTCNTRLDVTARPNQTLPAPKQL",3 ± 0.6 µM,
"Myotilin Ig1Ig2^220–452 (domain or fragment, human, UniProt Q9UBF9 220-452, looked up, Dimer only at high concentration; monomeric at low concentrations; source: E. coli, purified (HisTrap, HRV-3C cleavage, SEC); not shown: His tag (from the HisTrap column)) LQVPTSQVRSRSTSRGDVNDQDAIQEKFYPPRFIQVPENMSIDEGRFCRMDFKVSGLPAPDVSWYLNGRTVQSDDLHKMIVSEKGLHSLIFEVVRASDAGAYACVAKNRAGEATFTVQLDVLAKEHKRAPMFIYKPQSKKVLEGDSVKLECQISAIPPPKLFWKRNNEMVQFNTDRISLYQDNTGRVTLLIKDVNKKDAGWYTVSAVNEAGVTTCNTRLDVTARPNQTLPAPK",,stoichiometry N [3]: 2
